Test results published in article PMC4631118 (Molecular microbiology, 2012).

T1: MBP-A2 (Qβ lysis protein A2 fused to E. coli maltose-binding protein) (bacteriophage Qβ, UniProt Q8LTE2 1-420)
T1 sequence (looked up): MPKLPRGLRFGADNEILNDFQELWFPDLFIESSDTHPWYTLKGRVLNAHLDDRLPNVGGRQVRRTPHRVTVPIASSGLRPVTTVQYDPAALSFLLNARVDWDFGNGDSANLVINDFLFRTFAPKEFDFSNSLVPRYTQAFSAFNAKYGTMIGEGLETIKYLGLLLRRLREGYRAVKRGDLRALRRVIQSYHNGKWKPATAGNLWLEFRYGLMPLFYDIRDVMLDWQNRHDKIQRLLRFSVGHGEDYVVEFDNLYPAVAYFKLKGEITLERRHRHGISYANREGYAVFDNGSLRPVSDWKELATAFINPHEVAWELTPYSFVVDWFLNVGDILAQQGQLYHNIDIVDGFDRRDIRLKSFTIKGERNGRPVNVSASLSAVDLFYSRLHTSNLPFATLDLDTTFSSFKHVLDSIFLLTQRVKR

T2: A2 cleaved from the MBP fusion protein with TEV protease (bacteriophage Qβ, UniProt Q8LTE2 1-420)
T2 sequence (looked up): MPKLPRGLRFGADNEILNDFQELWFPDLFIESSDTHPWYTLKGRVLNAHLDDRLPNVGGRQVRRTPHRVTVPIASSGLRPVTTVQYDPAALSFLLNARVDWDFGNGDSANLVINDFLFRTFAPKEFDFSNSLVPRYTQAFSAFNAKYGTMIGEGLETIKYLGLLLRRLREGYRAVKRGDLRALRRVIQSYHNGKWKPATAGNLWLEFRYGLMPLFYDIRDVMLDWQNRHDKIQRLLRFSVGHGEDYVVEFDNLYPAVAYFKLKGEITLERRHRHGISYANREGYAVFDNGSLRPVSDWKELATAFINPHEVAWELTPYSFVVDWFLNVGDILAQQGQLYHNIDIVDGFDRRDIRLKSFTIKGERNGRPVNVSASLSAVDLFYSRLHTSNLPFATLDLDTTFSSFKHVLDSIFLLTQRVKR


Columns and labels:
[1] = target: T1, MBP-A2 (Qβ lysis protein A2 fused to E. …); test: pull-down
[2] = target: T2, A2 cleaved from the MBP fusion protein …; test: fusion cleavage assay

Binder | binding result [1] | binding result [2]
MurA (E. coli), purified, with C-terminal oligo-histidine tag (enzyme) MDKFRVQGPTKLQGEVTISGAKNAALPILFAALLAEEPVEIQNVPKLKDVDTSMKLLSQLGAKVERNGSVHIDARDVNVFCAPYDLVKTMRASIWALGPLVARFGQGQVSLPGGCTIGARPVDLHISGLEQLGATIKLEEGYVKASVDGRLKGAHIVMDKVSVGATVTIMCAATLAEGTTIIENAAREPEIVDTANFLITLGAKISGQGTDRIVIEGVERLGGGVYRVLPDRIETGTFLVAAAISRGKIICRNAQPDTLDAVLAKLRDAGADIEVGEDWISLDMHGKRPKAVNVRTAPHPAFPTDMQAQFTLLNLVAEGTGFITETVFENRFMHVPELSRMGAHAEIESNTVICHGVEKLSGAQVMATDLRASASLVLAGCIAEGTTVVDRIYHIDRGYERIEDKLRALGANIERVKGE | binds | –
MurA^D305A, purified (enzyme, E. coli) MDKFRVQGPTKLQGEVTISGAKNAALPILFAALLAEEPVEIQNVPKLKDVDTSMKLLSQLGAKVERNGSVHIDARDVNVFCAPYDLVKTMRASIWALGPLVARFGQGQVSLPGGCTIGARPVDLHISGLEQLGATIKLEEGYVKASVDGRLKGAHIVMDKVSVGATVTIMCAATLAEGTTIIENAAREPEIVDTANFLITLGAKISGQGTDRIVIEGVERLGGGVYRVLPDRIETGTFLVAAAISRGKIICRNAQPDTLDAVLAKLRDAGADIEVGEDWISLDMHGKRPKAVNVRTAPHPAFPTAMQAQFTLLNLVAEGTGFITETVFENRFMHVPELSRMGAHAEIESNTVICHGVEKLSGAQVMATDLRASASLVLAGCIAEGTTVVDRIYHIDRGYERIEDKLRALGANIERVKGE | – | binds
